Results: PMC11215065
Values joined by “and” are separate entries in the source; they are usually repeats but may differ in a detail not shown here. Identical values can stand only once.

Columns and labels:
[1] = molecular target: ULBP1-6xHIS soluble construct (ULBP1-6H); experiment: SEC-SAXS; equimolar mixture of EndoH-treated U20 and ULBP1-6H, 4.5 mg/mL, Superdex 200 Increase 5/150 GL in line with SAXS
ULBP1-Fc [2] = experiment: SEC-MALS; EndoH-deglycosylated U20 with ULBP1-Fc; 1 mg/ml, PBS, room temperature, WTC-030S5 column
[3] = molecular target: Soluble U20 extracellular domain (sU20) of HHV-6B (HHV-6B); experiment: SEC-MALS; EndoH-treated U20 alone; 1 mg/ml, PBS, room temperature
[4] = molecular target: ULBP1 on transduced HEK293 cells (UniProt Q9BZM6); experiment: flow cytometry on cells; ULBP1 (or ULBP3) HEK293 cells pretreated with sU20 at various concentrations for 5 minutes on ice, then stained with 5 nM NKG2D-Fc
[5] = molecular target: Soluble U20 extracellular domain (sU20) of HHV-6B (HHV-6B); experiment: SEC-MALS; U20 with intact high mannose glycans, alone; 1 mg/ml, PBS, room temperature
ULBP1-Fc [6] = experiment: SPR; Biacore 3000; biotinylated ULBP1-Fc (1000-2500 RU) on a Neutravidin coated CM5 chip; U20 injected at 0.125-32 μM; CD200 receptor Fc flow cell subtracted; equilibrium fit, one site specific binding, apparent; 20°C
[7] = molecular target: ULBP1 on transduced HEK293 cells (UniProt Q9BZM6); experiment: flow cytometry on cells; ULBP1 expressing cells pretreated with soluble U20 at various concentrations, then stained with APC conjugated anti-ULBP1 (R&D Systems FAB1380A)
[8] = molecular target: Soluble U20 extracellular domain (sU20) of HHV-6B (HHV-6B); experiment: SEC-SAXS; EndoH-treated U20 alone, 4.5 mg/mL, Superdex 200 Increase 5/150 GL in line with SAXS; mass by Porod volume
NKG2D-Fc = NKG2D-Fc (UniProt P26718); experiment: SPR; format not told in the text (Supplementary Figure S1A)
NKG2D-Fc, sequence (P26718 73-216): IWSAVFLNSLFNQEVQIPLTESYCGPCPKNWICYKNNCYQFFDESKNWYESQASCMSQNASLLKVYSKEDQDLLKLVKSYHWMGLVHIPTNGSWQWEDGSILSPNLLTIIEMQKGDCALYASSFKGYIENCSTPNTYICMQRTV

Soluble U20 extracellular domain (sU20) of HHV-6B (domain or fragment), sequence (Q9QJ46 16-321 limits assumed): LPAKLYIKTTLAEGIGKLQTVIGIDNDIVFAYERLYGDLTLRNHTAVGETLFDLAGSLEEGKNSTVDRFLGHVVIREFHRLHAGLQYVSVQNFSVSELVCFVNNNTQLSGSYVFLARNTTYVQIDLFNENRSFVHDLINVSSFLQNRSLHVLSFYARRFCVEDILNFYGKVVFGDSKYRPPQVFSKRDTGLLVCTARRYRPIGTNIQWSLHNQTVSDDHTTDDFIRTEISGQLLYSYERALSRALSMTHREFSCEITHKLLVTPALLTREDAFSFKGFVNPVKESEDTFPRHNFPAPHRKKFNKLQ

Substance | stoichiometry N [1] | stoichiometry N (ULBP1-Fc [2]) | stoichiometry N [3] | decrease in NKG2D-Fc binding to ULBP1 cells at 5 μM sU20 [4] | stoichiometry N [5] | dissociation half-life (ULBP1-Fc [6]) | reduction of anti-ULBP1 antibody binding to ULBP1 cells at 0.125 μM sU20 [7] | stoichiometry N [8] | Kd (NKG2D-Fc)
Soluble U20 extracellular domain (sU20) of HHV-6B (domain or fragment) | 1 | 1 | 2 | 90% | 2 | 63 s and 124 s | 60% | 2 | –
ULBP1-6xHIS soluble construct (ULBP1-6H) (domain or fragment) | – | – | – | – | – | – | – | – | 1000 nM
